Publication PMC6370319 (Cell reports, 2019)
Where a chain is given by its changes, count along the chain named. Numbers in names are those of the source.

B1: FNIP1-D-His6 (domain or fragment)
chain: TEWDIPRNESSDSALGDSESEDTGHDMTRQVSSYYGGEQEDWAEEDEIPFPGSKLIEVSAVQPNIANFGRSLLGGYCSSYVPDFVLQGIGSDERFRQCLMSDLSHAVQHPVLDEPIAEAVCIIADMDKWTVQVASSQRRVTDNKLGKEVLVSSLVSNLLHSTLQLYKHNLSPNFCVMHLEDRLQELYFKSKMLSEYLRGQMRVHVKELGVVLGIESSDLPLLAAVASTHSPYVAQILL
B2: FNIP1-D-His6 S938A (domain or fragment)
chain: B1 chain with S10A
B3: FNIP1-D-His6 S939A (domain or fragment)
chain: B1 chain with S11A
B4: FNIP1-D-His6 S941A (domain or fragment)
chain: B1 chain with S13A
B5: FNIP1-D-His6 S946A (domain or fragment)
chain: B1 chain with S18A
B6: FNIP1-D-His6 S948A (domain or fragment)
chain: B1 chain with S20A

These molecules were tested against Hsp90α (UniProt P07900) (assay: FNIP1-FLAG IP from yeast, Hsp90α blot). Conditions: reference: wild type FNIP1-FLAG; sites S948.

| Molecule | binding against the reference |
| --- | --- |
| FNIP1 (from UniProt Q8TF40) S948A | weaker |

What follows are molecules tested against T1, OGT-FLAG (human, UniProt O15294-3 1-1036) (assay: pull-down). Conditions: not given.
T1 sequence: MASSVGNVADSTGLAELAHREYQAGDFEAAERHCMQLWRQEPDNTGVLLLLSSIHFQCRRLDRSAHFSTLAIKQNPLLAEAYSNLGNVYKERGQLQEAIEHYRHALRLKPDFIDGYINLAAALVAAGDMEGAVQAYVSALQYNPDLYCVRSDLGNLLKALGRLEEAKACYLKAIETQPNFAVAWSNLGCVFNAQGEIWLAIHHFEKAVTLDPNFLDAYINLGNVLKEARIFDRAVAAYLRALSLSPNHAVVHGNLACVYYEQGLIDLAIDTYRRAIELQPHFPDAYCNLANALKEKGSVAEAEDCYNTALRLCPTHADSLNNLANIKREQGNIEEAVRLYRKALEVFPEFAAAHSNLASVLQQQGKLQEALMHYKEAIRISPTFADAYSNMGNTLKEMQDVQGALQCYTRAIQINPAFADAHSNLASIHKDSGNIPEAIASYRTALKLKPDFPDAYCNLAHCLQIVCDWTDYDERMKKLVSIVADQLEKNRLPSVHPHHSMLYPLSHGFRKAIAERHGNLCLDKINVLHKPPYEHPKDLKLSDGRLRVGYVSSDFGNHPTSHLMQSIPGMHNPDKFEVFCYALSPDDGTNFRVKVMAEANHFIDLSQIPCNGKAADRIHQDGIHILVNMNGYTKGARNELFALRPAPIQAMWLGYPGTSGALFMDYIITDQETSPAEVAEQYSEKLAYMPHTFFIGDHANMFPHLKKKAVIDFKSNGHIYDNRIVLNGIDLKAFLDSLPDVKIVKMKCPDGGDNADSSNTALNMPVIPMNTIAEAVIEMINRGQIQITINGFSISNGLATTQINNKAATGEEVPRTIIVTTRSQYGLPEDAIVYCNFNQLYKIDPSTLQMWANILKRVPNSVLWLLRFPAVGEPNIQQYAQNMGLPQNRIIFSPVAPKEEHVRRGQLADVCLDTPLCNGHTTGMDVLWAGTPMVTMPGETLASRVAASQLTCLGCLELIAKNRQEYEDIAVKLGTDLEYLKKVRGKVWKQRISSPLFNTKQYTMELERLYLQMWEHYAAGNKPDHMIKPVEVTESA

| Molecule | binding result |
| --- | --- |
| B1 | binds |
| B2 | binds |
| B3 | binds |
| B4 | binds |
| B5 | binds |
| B6 | binds |
